Assays:
[1] = target: recombinant factor B derived from Tachypleus tridentatus (Tachypleus tridentatus) (UniProt Q27081); test: cell-based or functional assay
[2] = target: T1, recombinant factor B derived from Tachypleus tridentatus, Q27081
T1 chain: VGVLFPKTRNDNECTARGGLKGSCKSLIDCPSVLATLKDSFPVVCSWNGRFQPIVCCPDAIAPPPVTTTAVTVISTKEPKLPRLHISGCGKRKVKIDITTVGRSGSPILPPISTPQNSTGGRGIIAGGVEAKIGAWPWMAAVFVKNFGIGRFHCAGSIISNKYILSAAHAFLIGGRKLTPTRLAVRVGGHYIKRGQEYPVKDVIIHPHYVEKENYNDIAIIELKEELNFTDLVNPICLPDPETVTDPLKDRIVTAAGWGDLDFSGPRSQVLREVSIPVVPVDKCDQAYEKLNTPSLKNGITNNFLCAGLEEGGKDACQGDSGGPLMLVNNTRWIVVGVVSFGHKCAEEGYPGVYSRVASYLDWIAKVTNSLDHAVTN

[3] = target: T2, recombinant protein having factor B activity of Limulus polyphemus (recombinant second protein)
T2 chain: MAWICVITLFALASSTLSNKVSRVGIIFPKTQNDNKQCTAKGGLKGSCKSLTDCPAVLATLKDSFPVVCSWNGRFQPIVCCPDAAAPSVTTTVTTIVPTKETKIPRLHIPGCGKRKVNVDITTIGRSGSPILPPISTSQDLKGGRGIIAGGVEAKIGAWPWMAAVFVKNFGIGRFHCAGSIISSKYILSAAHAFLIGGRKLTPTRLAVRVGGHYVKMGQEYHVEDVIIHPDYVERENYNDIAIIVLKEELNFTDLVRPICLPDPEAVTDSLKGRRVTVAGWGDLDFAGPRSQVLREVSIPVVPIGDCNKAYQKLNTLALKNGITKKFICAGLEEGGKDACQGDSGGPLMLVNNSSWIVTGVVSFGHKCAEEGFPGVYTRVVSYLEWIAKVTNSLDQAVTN

[4] = target: T3, recombinant protein having proclotting enzyme activity of Limulus polyphemus (recombinant third protein)
T3 chain: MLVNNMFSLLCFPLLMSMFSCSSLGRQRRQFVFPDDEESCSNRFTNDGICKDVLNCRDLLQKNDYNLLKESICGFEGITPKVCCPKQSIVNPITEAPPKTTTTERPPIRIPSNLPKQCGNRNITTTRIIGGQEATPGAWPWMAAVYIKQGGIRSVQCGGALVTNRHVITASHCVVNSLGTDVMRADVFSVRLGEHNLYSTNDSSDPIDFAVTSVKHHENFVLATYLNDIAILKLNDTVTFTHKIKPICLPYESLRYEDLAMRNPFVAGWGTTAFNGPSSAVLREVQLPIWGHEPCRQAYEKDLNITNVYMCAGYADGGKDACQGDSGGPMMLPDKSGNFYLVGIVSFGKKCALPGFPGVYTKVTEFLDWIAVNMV

Work on “recombinant factor C derived from the genus Tachypleus (Tachypleus tridentatus) (from UniProt P28175 26-1019) (enzyme)” yielded a change in the absorbance in the cascade reaction system (TFC + TFB + TPCE + Boc-LGR-pNA) at endotoxin 0 EU/mL (blank) [1] of 0.51 mAbs/min and a change in the absorbance in the cascade reaction system (TFC + TFB + TPCE + Boc-LGR-pNA) at endotoxin 0.05 EU/mL [1] of 9.15 mAbs/min.

B1: recombinant factor C derived from Limulus polyphemus (recombinant first protein, protein having factor C activity) (protein)
chain: RGVDLGLCDDTRFECKCGDPGYVFNVPAKQCTYFYRWRPYCKPCDKLEAKDVCPKYKRCQECRAGLDSCVSCPPNKYGTWCSGECQCKNGGICDQRTGACTCRDRYEGVHCEILQGCPLLQSDPQVQEVKNPPNDPQTIDYSCSPGFKLKGVARITCLPNGQWSSFPPKCIRECSMVSSLEHGKVNSPSADLIEGATLRFSCDSPYYLIGQETLTCQGNGQWSGQIPQCQKLVFCPDLDPVSHAEHQVKIGLEQKYGQFPQGTEVTYTCTGNYFLMGLDTLKCNPDGSWSGTQPSCVKVADREVNCDSKAVDFLDDVGEPVRIHCPAGCSLTAGTVWGTAIYHELSSVCRAAIHAGKVPNSGGAVHVVNNGPYSDFLASDLNGIKSDELKSLAQSFRFDYVSSSTAGRKSGCPDGWFEIEENCVYVTSKQRAWERAQGVCTNMAARLAVLDKDVIPSSLTETLRGKGLATTWIGLHRLDADNHFIWELMDRSSVALNDSLTFWAPGEPGNETNCVYLDIQDQLQPVWKTKSCFQPSSFVCMMDLSDKNKAKCKDPGPLENGHAKLHGQSIDGFYAGSSVRYSCEVLHYLSGTETVSCTSNGTWSAPKPRCIKVITCQTPPVPSYGSVDIKPPSRTNSISRVGSPFLRLPRLPLPLARAAGPPPKPRSAPPSTVDLSSKVKLPEGHYRVGSQAIYTCESRYYELLGSQGRRCDSNGKWSGRPASCIPVCGRSDSPRSPFIVNGNSTEIGQWPWQAGISRWLADHNMWFLQCGGALLNEKWIITAAHCVTYSATAEIIDPSQFKFYLGKYYRDDSKDDDYVQVREAIEIHVNPNYDPGNLNFDIALIQLKTSVALTTRVQPICLPTDLTTRENLKEGALAVVTGWGLNENNTYSEMIQQAVLPVVAASTCEQGYQDSGLPLTVTENMFCAGYKQGRYDACSGDSGGPLVFADDSRTDRRWVLEGIVSWGSPNGCGKSNQYGGFTKVNVFLSWIRQFI
For B1, the “activity in the cascade reaction system relative to TFC” value [2] was “LFC showed the activity about 1.6 times (about 2.2 times when considering the difference in the protein amount) higher than TFC”, the “activity in the cascade reaction system relative to TFC, corrected for the difference in the protein amount” value [2] was “LFC showed the activity about 1.6 times (about 2.2 times when considering the difference in the protein amount) higher than TFC” and the “cleavage of synthetic substrate Boc-LGR-pNA (change in absorbance A405 nm) in the cascade reaction with endotoxin (0 and 0.05 EU/mL); FC + FB + PCE” value [3] was “when all the three types of recombinant proteins were included, cleavage of the synthetic substrate was observed”. It also gave a change in the absorbance in the cascade reaction system (LFC + TFB + TPCE + Boc-LGR-pNA) at endotoxin 0 EU/mL (blank) [1] of 0.53 mAbs/min and a change in the absorbance in the cascade reaction system (LFC + TFB + TPCE + Boc-LGR-pNA) at endotoxin 0.05 EU/mL [1] of 14.3 mAbs/min.

B2: recombinant protein having factor B activity of Limulus polyphemus (recombinant second protein) (protein)
chain: T2 chain
B2 was tested, and the “cleavage of synthetic substrate Boc-LGR-pNA (change in absorbance A405 nm) in the cascade reaction with endotoxin (0 and 0.05 EU/mL); FC + FB + PCE” value [4] was “when all the three types of recombinant proteins were included, cleavage of the synthetic substrate was observed”.

From US20190241629A1
